B1: 4D24 (antibody, V domains shown)
VH: EVQLVESGGGLVQPKGSLKLSCAASGFSFNPYAMNWVRQSPGKGLEWVARIRSKSNNYATYYADSVKDRFTISRDDSESMLYLQMNNLKTEDTAMYYCVRQGWVKRYFDVWGTGTTVTVSS
VL: GNVLTQSPAIMSASPGEKVTMTCSASSSGTYMHWYQQKSTTSPKLWIYDTSKLASGVPGRFSGSGSGNSYSLTISSMEAEDIATYYCFQGSGYPLTFGSGTKLEIK
notes: Mouse hybridoma monoclonal antibody
B2: 1G17 (antibody, V domains shown)
VH: QVQLQQSGAELVRPGASVTLSCKASGYTFADYEMHWVKQTPVLGLEWIGAIDPETGRTAYNQKFKFKATLTADRSSSTAYMELRSLTSEDSAVYYCTRRAYWGGWGQGTTLTVSS
VL: DVVMTQTPLSLPVSLGDQASISCRSSQSLVHSSGNTYLHWYLQKPGQSPKLLIYKVSNRFSGVPDRFSGSGSGTDFTLKISRVEAEDLGVYFCSQSTHVPYTFGGGTKLEIK
notes: as for B1
B3: 2P15 (antibody, V domains shown)
VH: EVQLVESGGGLVQPKGSLKLSCAASGFSFNAYAMNWVRQAPGKGLEWVARMRSKSNYYATYYADSVKDRFTISRDDSESMLYLQMNNLKTEDTAMYYCVRQTYGSKDYAMDYWGQGTSVTVSS
VL: B2 VL with S33N, L38F, Y101F, G105S
notes: as for B1
B4: 84B4 (antibody, V domains shown)
VH: EVQLQQSGPVLVKPGASVKMSCKASGFTITDYYFNWVKQSHGKSLEWIGIINPYNGVARYKQKFKGKATLTVDKSSSTVYLEFSGLTSEDSAVYYCVRFVYGTTYDYAMDYWGQGTSVTVSS
VL: B2 VL with V3L, L29I, S33N, H39E, L42V, F92Y, S94F, S96G, T97S, Y101P
notes: as for B1
B5: 3C11 (antibody, V domains shown)
VH: EFQLQQSGPELVKPGASVKISCKTSGYSFTDYNINWVKQSNGKSLEWIGLINPNHGTTKSNQKFKGKATLTVDQSSSTAYMQLSSLTSEDSAVYYCARHDYDGAYWGQGTLVTVSA
VL: B2 VL with V30I, S33N, V56I, H98R, V99A, Y101W
notes: as for B1
B6: 101E4 (antibody, V domains shown)
VH: EVQLVESGGGLVQPKGSLKLSCAASGFSFNPYAMNWVRQGPGKGLEWVARIRSKSNNYATYYADSVKDRFTISRDDSENILYLQMNNLKTEDTAMYYCVRDYYGGRSSIGMDYWGHGTSVTVSS
VL: DIVMTQAAPSVPVTPGESVSISCRSSKSLLHSNGNTYLYWFLQRPGQSPQLLIYRMSNLASGVPDRFSGSGSGTAFTLRISRVEAEDVGVYYCLQHLEYPFTFGGGTKLELK
notes: Mouse hybridoma monoclonal antibody (SJL mice); detected with anti-mouse IgG
B7: 118H1 (antibody, V domains shown)
VH: B6 VH with G40A, V48I, T60A, N86K, K89I, G105T, S107P, H116R
VL: B6 VL with V3A, P12F, K27Q, Q47R, A75G, L94M, G105A
notes: Mouse hybridoma monoclonal antibody; also called 1181H1
B8: 3F6 (antibody, V domains shown)
VH: EVQFVESGGGLVQPKGSLKLSCAASGFSFNTYAMNWVRQAPGKGLEWVARIRTKSNNYATHYADSVKDRFIVSRDDSENILYLQMNNLKTEDTGMYYCVRGGNGIYGRNAMDNWGQGTSVTVSS
VL: B6 VL with T14S, N33S, L94M, L111I
notes: as for B1
B9: 3O20 (antibody, V domains shown)
VH: EVQLVESGGGLVQPKGSLKLSCATSGFSFNAYAMNWVRQAPGKGLEWVGRIRSKSNNYATYYADSVKGRFTISRDDSKTILYLQMNTLKTEDTAIYYCVRGGYHGNSAYFDVWGTGTSVTVSS
VL: B6 VL with G105S, L111I
notes: as for B1
B10: 3F11 (antibody, V domains shown)
VH: B3 VH with A31T, M51I, Q101G, T102R, Y103E, G104L, S105G, K106D, D107Y
VL: B6 VL with D65N, L94M, G105S, L111I
notes: as for B1
B11: 4M13 (antibody, V domains shown)
VH: B3 VH with A31T, Y57N, Q101G, T102K, Y103D, G104T, K106G, D107S, T120S
VL: B6 VL with Q50H, R82K, A85T, L94M, G105S, L111I
notes: as for B1
B12: 103G4 (antibody, V domains shown)
VH: B6 VH with Q13R, M34L, G40A, R100K, G105T, S107P, H116Q
VL: B6 VL with K27R, Q50H, L94M, G105A
notes: as for B1
B13: 4G19 (antibody, V domains shown)
VH: B8 VH with K67T, N79S, I80M, L81T, A110T
VL: B6 VL with A7T, T14S, N33S, L94M, L111I, K112Q
notes: as for B1
B14: 2L15 (antibody, V domains shown)
VH: B3 VH with A31T, M51I, Y57N, D75A, Q101G, T102K, Y103D, G104I, K106V, D107S
VL: B6 VL with L30Q, A85T, L94M, G105S, L111I
notes: as for B1
B15: 172E7 (antibody, V domains shown)
VH: EVQLQQSGPVLVKPGASVKMSCKASGYTFTDNYMNWMKQSHGKTLEWIGVINPYNGVTRYNQKFRDKATLTVDKSSSTAYMDLNSLTSEDSAVYYCSNSLSWGPGTSLTVSS
VL: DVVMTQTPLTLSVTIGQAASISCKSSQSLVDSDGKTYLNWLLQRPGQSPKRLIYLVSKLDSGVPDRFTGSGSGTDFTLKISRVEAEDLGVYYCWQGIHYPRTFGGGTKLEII
notes: as for B1
B16: 170G6 (antibody, V domains shown)
VH: B15 VH with M37V, T44S, D66G, V72A, Y80F, S107T
VL: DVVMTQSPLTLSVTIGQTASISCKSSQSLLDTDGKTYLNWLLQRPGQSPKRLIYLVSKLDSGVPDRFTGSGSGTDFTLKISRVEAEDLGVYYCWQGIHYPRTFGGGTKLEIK
notes: as for B1
B17: 3F11hz2 (antibody, V domains shown)
VH: EVQLVESGGGLVQPGGSLKLSCAASGFSFNTYAMNWVRQASGKGLEWVGRIRSKSNYYATYYAASVKGRFTISRDDSKNTAYLQMNSLKTEDTAVYYCVRGRELGDYYAMDYWGQGTLVTVSS
VL: DIVMTQSPLSLPVTPGEPASISCRSSKSLLHSNGNTYLDWFLQKPGQSPQLLIYRMSNRASGVPDRFSGSGSGTDFTLKISRVEAEDVGVYYCMQHLEYPFTFGQGTKLEIK
notes: Humanized variant of 3F11
B18: 3O20hz3 (antibody, V domains shown)
VH: B9 VH with K15G, N35H, P41S, Y61A, D64A, I80T, T87S, I95V, T115Q, S118L
VL: B17 VL with N33Q, M94L
notes: Humanized variant of 3O20
B19: 3O20hz1 (antibody, V domains shown)
VH: EVQLVESGGGLVQPGGSLKLSCAASGFSFNAYAMHWVRQASGKGLEWVGRIRSKSNNYATAYAASVKGRFTISRDDSKNTAYLQMNSLKTEDTAVYYCVRGGYHGNSAYFDVWGQGTLVTVSS
VL: B17 VL with F41Y, M94L
notes: Humanized variant of 3O20
B20: 1G17hz0 (antibody, V domains shown)
VH: B2 VH
VL: B2 VL
notes: same VH and VL as mouse 1G17
B21: 3F11hz0 (antibody, V domains shown)
VH: B3 VH with A31T, M51I, Q101G, T102R, Y103E, G104L, S105G, K106D, D107Y
VL: B6 VL with D65N, L94M, G105S, L111I
notes: same VH and VL as mouse 3F11
B22: 3O20hz0 (antibody, V domains shown)
VH: B9 VH
VL: B6 VL with G105S, L111I
notes: same VH and VL as mouse 3O20
B23: 1G17hz2 (antibody, V domains shown)
VH: QVQLVQSGAEVKKPGASVKVSCKASGYTFADYEMHWVRQAPGQGLEWIGIIDPETGRTSYAQKFQGRATLTADRSTSTAYMELSSLRSEDTAVYYCTRRAYWGGWGQGTLVTVSS
VL: DVVMTQSPLSLPVTLGQPASISCRSSQSLVHSSGNTYLNWYQQRPGQSPRLLIYKVSNRDSGVPDRFSGSGSGTDFTLKISRVEAEDVGVYFCSQSTHVPYTFGQGTKLEIK
notes: Humanized variant of 1G17

Numbering of substitutions follows the chain as printed.

This is an account of results in patent US20240352134A1 (NANJING IMMUNOPHAGE BIOTECH, published 2024).

The target of the first assay is T1, human CCR8 (human, UniProt P51685 1-355). In words: cell-based or functional assay.
T1 sequence (P51685 whole entry): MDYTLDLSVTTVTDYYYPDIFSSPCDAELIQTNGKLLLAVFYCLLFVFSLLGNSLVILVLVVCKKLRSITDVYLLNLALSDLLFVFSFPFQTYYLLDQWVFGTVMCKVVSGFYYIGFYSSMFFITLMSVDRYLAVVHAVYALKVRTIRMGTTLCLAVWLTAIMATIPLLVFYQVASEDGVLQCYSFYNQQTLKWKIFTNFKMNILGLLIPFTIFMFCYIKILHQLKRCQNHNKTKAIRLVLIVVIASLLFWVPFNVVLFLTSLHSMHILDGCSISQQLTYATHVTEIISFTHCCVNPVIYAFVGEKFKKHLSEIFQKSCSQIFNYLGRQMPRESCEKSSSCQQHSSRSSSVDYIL
In the case of B1, the “Tango IC50” value was 0.67 nM.
For B2, the “Tango IC50” value turned out to be 1.82 nM.
Still for that read-out and setting: under B3 stands 1.87 nM; under B4, 1.86 nM; under B5, 4.08 nM.
Consider B6, for which the “Tango IC50” value stood at 0.27 nM.
Still for that read-out and setting: the same measure for B7: 1.43 nM; for B8: 0.51 nM.
Still for that read-out and setting: the same measure for B9: 0.45 nM.
On the same count and under the same terms, under B10 stands 0.27 nM.
As for B11, the “Tango IC50” value turned out to be 0.47 nM.
B12: the “Tango IC50” value turned out to be 0.83 nM.
On the same count and under the same terms, under B13 stands 2.61 nM; under B14, 1.23 nM; under B15, 2.01 nM.
In the case of B16, the “Tango IC50” value was found to be 0.33 nM.

A further assay deals with T1, human CCR8. In words: FACS on 293F-CCR8 cells. As to the method: The affinity of anti-CCR8 antibodies was evaluated by FACS. […] Affinity analyses were generally carried out as follows. […] The test antibodies were diluted with PBS/0.5 BSA (1:3 series dilution from 225 μg/mL to 0.00381 μg/mL). The transfected cells along with parent non-transfected cells were distributed into 96-well round-bottom polystyrene plates and incubated with the diluted antibodies on ice for 20-30 minutes. Next, the samples were washed with PBS/0.5 BSA and the cells were centrifuged. The pelleted cell samples were incubated with the second antibody of anti-mouse IgG-FITC-at 1:300 dilution in 100 μL PBS/0.5% BSA on ice for 30 minutes, and then washed with PBS/0.5% BSA, followed by pelleting the cells. The cell pellets were re-suspended in PBS/0.5% BSA for reading, and samples were analyzed using CYTOFLEX (Beckman).
For orientation: EC50 means the concentration needed to bring the measured effect to its halfway point. The low end stands for an effect from little substance, the high end for a need for much substance. Regarding B1, the midpoint of the response, the EC50, lay at 0.888 nM.
Regarding B2, it took 2.94 nM to reach a half-maximal effect (EC50).
The molecule B3 yielded an EC50 of 0.305 nM. Compared with the last molecule, the EC50 is about 9.6-fold lower.
In turn, B4 gave an EC50 of 0.195 nM.
The molecule B5 showed a half-maximal effective concentration (EC50) of 4.25 nM.
The same measure, in the same setting: under B6 stands 0.409 nM.
Same read-out and setting: under B7 stands 0.466 nM; under B8, 2.29 nM; under B9, 1.29 nM.
Still for that read-out and setting: under B10 stands 0.957 nM; under B11, 0.775 nM; under B12, 20.6 nM.
In turn, B13 came in with an EC50 of 4.49 nM. This EC50 lies about 4.6-fold lower than the previous one.
Consider B14, for which the EC50 came to 0.826 nM.
Same read-out and setting: the same measure for B15: 6.99 nM.
On the same count and under the same terms, under B16 stands 0.302 nM.

The target in the next assay is T1, human CCR8. Kind of assay: FACS on human CCR8-expressing 293F cells.
In the case of B17, the EC50 stood at 98.5 nM.
The molecule B18 yielded an EC50 of 241 nM.
For the molecule B19, the EC50 is 508 nM. Compared with the last molecule, the EC50 is about 2.1-fold higher.
On the same count and under the same terms, the same measure for B20: 0.451 nM.
Consider B21, for which the response was half-maximal at 0.309 nM (EC50).
B22 registered an EC50 of 0.185 nM.
The same measure, in the same setting: the same measure for B23: 333 nM.
